Data taken from patent US20240376151A1, “STAPLED PEPTIDES AND METHODS THEREOF” (FOG PHARMACEUTICALS, INC., priority 2022, published 2024).
Numbered stars: 1 amine (or outer) side, 2 acyl side, 3 side chain; on linkers, the order of the positions; unused ones are H or OH. Bridge positions count the residues as written; N and C are the ends. Ends that are not written are not given here. Phenylene(1,4-NHCOCH2)2 = O=C(C[*:1])Nc1ccc(NC(=O)C[*:2])cc1

Target: T1, CHIP (Homo sapiens, UniProt Q9UNE7)
T1 construct: N-term truncated CHIP (also known as STUB1, Uniprot ID: Q9UNE7, residues 23-303); made in house; host or cells: E. coli BL21 CodonPlus
T1 sequence (Q9UNE7 23-303): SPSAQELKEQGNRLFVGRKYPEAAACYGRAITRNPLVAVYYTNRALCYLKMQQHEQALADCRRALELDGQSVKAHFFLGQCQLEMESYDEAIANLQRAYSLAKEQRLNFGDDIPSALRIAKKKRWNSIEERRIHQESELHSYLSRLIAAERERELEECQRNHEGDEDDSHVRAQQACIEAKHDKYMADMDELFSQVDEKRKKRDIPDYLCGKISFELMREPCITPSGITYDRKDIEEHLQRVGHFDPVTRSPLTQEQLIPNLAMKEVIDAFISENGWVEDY
Test: Naive Library Presenter Screening (phage, NGS), CHIP
Type: binding
Conditions: for interaction data, BLANK: Blank = Media only
Method: To conduct phage library screening, previously described procedures were utilized in accordance with the present disclosure.
Next-generation sequencing was performed as described in accordance with the present disclosure.
Hit ID and Clustering is performed according to a described procedure in accordance with the present disclosure.

[1] = CHIP clusters (C83, C84), first column
[2] = CHIP clusters (C83, C84), second column
[3] = CHIP clusters (C83, C84), target concentration 10 nM
[4] = CHIP clusters (C83, C84), target concentration 30 nM
[5] = CHIP clusters (C83, C84), target concentration 100 nM
[6] = CHIP clusters (C83, C84), target concentration 300 nM
[7] = CHIP clusters (C83, C84), target concentration 1000 nM, first column
[8] = CHIP clusters (C83, C84), target concentration 1000 nM, second column
[9] = CHIP target concentration 10 nM
[10] = CHIP target concentration 30 nM
[11] = CHIP target concentration 100 nM
[12] = CHIP target concentration 300 nM
[13] = CHIP target concentration 1000 nM, first column
[14] = CHIP target concentration 1000 nM, second column

Row | Sequence | interaction data, BLANK [1] | interaction data, BLANK [2] | interaction data at Target Concentration 10 [3] | interaction data at Target Concentration 30 [4] | interaction data at Target Concentration 100 [5] | interaction data at Target Concentration 300 [6] | interaction data at Target Concentration 1000 [7] | interaction data at Target Concentration 1000 [8] | interaction data at Target Concentration 10 [9] | interaction data at Target Concentration 30 [10] | interaction data at Target Concentration 100 [11] | interaction data at Target Concentration 300 [12] | interaction data at Target Concentration 1000 [13] | interaction data at Target Concentration 1000 [14]
1 | DPAFDRCQWAAALCMMN (linker 7-14 via Phenylene(1,4-NHCOCH2)2 (inferred)) | 0 | 0 | 0 | 0 | 4 | 13 | 31 | 76 | – | – | – | – | – | –
2 | DPAVRWCAAAAAICMVD (linker 7-14 via Phenylene(1,4-NHCOCH2)2 (inferred); not fully specified (C-terminus)) | 0 | 0 | 0 | 0 | 0 | 21 | 16 | 22 | – | – | – | – | – | –
3 | DPAINMCYRAAQICDVD (linker 7-14 via Phenylene(1,4-NHCOCH2)2 (inferred)) | 0 | 0 | 0 | 0 | 0 | 31 | 28 | 27 | – | – | – | – | – | –
4 | DPAFWSCQFAAATCSHL (linker 7-14 via Phenylene(1,4-NHCOCH2)2 (inferred)) | 0 | 0 | 0 | 0 | 4 | 6 | 11 | 8 | – | – | – | – | – | –
5 | DPAFTACQFAAAMCDSS (linker 7-14 via Phenylene(1,4-NHCOCH2)2 (inferred)) | 0 | 0 | 0 | 0 | 0 | 3 | 8 | 5 | – | – | – | – | – | –
6 | DPAFEYCQWAAATCQMD (linker 7-14 via Phenylene(1,4-NHCOCH2)2 (inferred)) | 0 | 0 | 0 | 12 | 0 | 43 | 46 | 90 | – | – | – | – | – | –
7 | DPAFWVCQYAAAMCQDV (linker 7-14 via Phenylene(1,4-NHCOCH2)2 (inferred)) | 1 | 0 | 8 | 3 | 160 | 86 | 331 | 323 | – | – | – | – | – | –
8 | ICYNAWFECE (linker 2-9 via Phenylene(1,4-NHCOCH2)2 (inferred)) | – | – | – | – | – | – | – | – | 0 | 2 | 9 | 11 | 18 | 14
9 | DPAVHNCSQAASICDVD (linker 7-14 via Phenylene(1,4-NHCOCH2)2 (inferred); not fully specified (C-terminus)) | 0 | 0 | 0 | 0 | 0 | 22 | 9 | 39 | – | – | – | – | – | –
10 | PCWDAWMLCTD (linker 2-9 via Phenylene(1,4-NHCOCH2)2 (inferred)) | – | – | – | – | – | – | – | – | 19 | 142 | 542 | 632 | 701 | 581
11 | DPANHICHYAAHICDVD (DPANHICHYAAHICDVD-NH2; linker 7-14 via Phenylene(1,4-NHCOCH2)2 (inferred)) | 0 | 0 | 0 | 0 | 3 | 15 | 6 | 49 | – | – | – | – | – | –
12 | ICYNAWLECA (linker 2-9 via Phenylene(1,4-NHCOCH2)2 (inferred)) | – | – | – | – | – | – | – | – | 0 | 1 | 5 | 7 | 11 | 9
13 | ICYNAWVECE (linker 2-9 via Phenylene(1,4-NHCOCH2)2 (inferred)) | – | – | – | – | – | – | – | – | 1 | 2 | 10 | 21 | 19 | 23
14 | PCWEAWLWCSM (linker 2-9 via Phenylene(1,4-NHCOCH2)2 (inferred)) | – | – | – | – | – | – | – | – | 0 | 0 | 4 | 124 | 194 | 145
15 | DPALWNCQYAAVMCTQL (linker 7-14 via Phenylene(1,4-NHCOCH2)2 (inferred); not fully specified (C-terminus)) | 0 | 0 | 0 | 0 | 0 | 14 | 34 | 75 | – | – | – | – | – | –
16 | PCYSAWIVCSD (linker 2-9 via Phenylene(1,4-NHCOCH2)2 (inferred)) | – | – | – | – | – | – | – | – | 4 | 81 | 123 | 444 | 549 | 468
17 | DPAYDVCHFAAHICWID (linker 7-14 via Phenylene(1,4-NHCOCH2)2 (inferred)) | 0 | 0 | 0 | 0 | 22 | 19 | 20 | 62 | – | – | – | – | – | –
